No end group written: not given here.
target: T1, enzyme I (phosphoenolpyruvate-protein phosphotransferase, EC 2.7.3.9) of the E. coli phosphotransferase system (E. coli, UniProt P08839 1-575); assay: cell-based or functional assay

| Binder | inhibition IC50 | uncoupling P;Ipeptide/h |
| --- | --- | --- |
| KKWHLRKR [peptide 5 KKWHLRKR] | 30 µM | 0.3 Pi/peptide/h |
| KGWHKRKK [peptide 6 KGWHKRKK] | 530 µM | 0.23 Pi/peptide/h |
| Ac-WHKR [peptide 13 Ac-WHKR] | 5800 µM | – |
| KKFDLRK [peptide 3 KKFDLRK] | 820 µM | 0.05 Pi/peptide/h |
| KKFHLRK [peptide 1 KKFHLRK] | 150 µM | 0.49 Pi/peptide/h |
| KKFHIRKR [peptide 9 KKFHIRKR] | 160 µM | 0.31 Pi/peptide/h |
| KKWHKRKK [peptide 8 KKWHKRKK] | 440 µM | 0.215 Pi/peptide/h |
| KKWHRRKK [peptide 7 KKWHRRKK] | 300 µM | 0.29 Pi/peptide/h |
| WHKR [peptide 12 WHKR] | 4900 µM | – |

target: T1, enzyme I (phosphoenolpyruvate-protein …); assay: cell-based or functional assay; remark: another data set of the same source

| Binder | inhibition IC50 | uncoupling Pi/peptide (x IC50/h) |
| --- | --- | --- |
| GLRFGKTRVHYLVLG [peptide 14 GLRFGKTRVHYLVLG] | 25 µM | 3.2 Pi/peptide (x IC50/h) |
| RHWSIF [peptide 24 RHWSIF] | 400 µM | – |
| KMSRHRKPGA [peptide 16 KMSRHRKPGA] | 100 µM | 22.2 Pi/peptide (x IC50/h) |
| SGRKSTRVHHWLLVL (not fully specified (residue 11)) [peptide 15 SGRKSTRVHHWLLVL] | 60 µM | 6.6 Pi/peptide (x IC50/h) |
| KISRHGRPTG [peptide 19 KISRHGRPTG] | 1060 µM | 479 Pi/peptide (x IC50/h) |
| RHRTLF [peptide 25 RHRTLF] | 410 µM | – |
| RHITLF [peptide 28 RHITLF] | 1380 µM | – |
| MSRHRN [peptide 29 MSRHRN] | 760 µM | 144 Pi/peptide (x IC50/h) |
| RHYLLF [peptide 26 RHYLLF] | 500 µM | – |
| Ac-MRLLKTLCFVGLCG (cysteine pairing not given here) [peptide 32 AcMRLLKTLCFVGLCG] | > 10000 µM | – |
| KISRHGKRGK [peptide 18 KISRHGKRGK] | 140 µM | 1.9 Pi/peptide (x IC50/h) |
| RIHFIPRRGR [peptide 20 RIHFIPRRGR] | 280 µM | 39.6 Pi/peptide (x IC50/h) |
| DGARLHYLF [peptide 22 DGARLHYLF] | 1200 µM | 132 Pi/peptide (x IC50/h) |
| RLHYLF [peptide 21 RLHYLF] | 375 µM | 64.2 Pi/peptide (x IC50/h) |
| RHITSL [peptide 27 RHITSL] | 650 µM | – |
| Ac-DGARLHYLF [peptide 23 AcDGARLHYLF] | 7600 µM | 15.2 Pi/peptide (x IC50/h) |
| MRLLKTLCFGLCG [peptide 31 MRLLKTLCFGLCG] | 3500 µM | – |

From EP0866075B1 (Arpida AG,, dated 1998)
